B1: HA-RNF111 wild type (HA-RNF111^WT) in RNF111 KO U2OS cells [not stated] / Arkadia-like 1 (ARKL1) [human (endogenous in U2OS)] (parent)
chain 1: MSQWTPEYNELYTLKVDMKSEIPSDAPKTQESLKGILLHPEPIGAAKSFPAGVEMINSKVGNEFSHLCDDSQKQEKEMNGNQQEQEKSLVVRKKRKSQQAGPSYVQNCVKENQGILGLRQHLGTPSDEDNDSSFSDCLSSPSSSLHFGDSDTVTSDEDKEVSVRHSQTILNAKSRSHSARSHKWPRTETESVSGLLMKRPCLHGSSLRRLPCRKRFVKNNSSQRTQKQKERILMQRKKREVLARRKYALLPSSSSSSENDLSSESSSSSSTEGEEDLFVSASENHQNNPAVPSGSIDEDVVVIEASSTPQVTANEEINVTSTDSEVEIVTVGESYRSRSTLGHSRSHWSQGSSSHASRPQEPRNRSRISTVIQPLRQNAAEVVDLTVDEDEPTVVPTTSARMESQATSASINNSNPSTSEQASDTASAVTSSQPSTVSETSATLTSNSTTGTSIGDDSRRTTSSAVTETGPPAMPRLPSCCPQHSPCGGSSQNHHALGHPHTSCFQQHGHHFQHHHHHHHTPHPAVPVSPSFSDPACPVERPPQVQAPCGANSSSGTSYHEQQALPVDLSNSGIRSHGSGSFHGASAFDPCCPVSSSRAAIFGHQAAAAAPSQPLSSIDGYGSSMVAQPQPQPPPQPSLSSCRHYMPPPYASLTRPLHHQASACPHSHGNPPPQTQPPPQVDYVIPHPVHAFHSQISSHATSHPVAPPPPTHLASTAAPIPQHLPPTHQPISHHIPATAPPAQRLHPHEVMQRMEVQRRRMMQHPTRAHERPPPHPHRMHPNYGHGHHIHVPQTMSSHPRQAPERSAWELGIEAGVTAATYTPGALHPHLAHYHAPPRLHHLQLGALPLMVPDMAGYPHIRYISSGLDGTSFRGPFRGNFEELIHLEERLGNVNRGASQGTIERCTYPHKYKKVTTDWFSQRKLHCKQDGEEGTEEDTEEKCTICLSILEEGEDVRRLPCMHLFHQVCVDQWLITNKKCPICRVDIEAQLPSES
chain 2: MKMEEAVGKVEELIESEAPPKASEQETAKEEDGSVELESQVQKDGVADSTVISSMPCLLMELRRDSSESQLASTESDKPTTGRVYESDSSNHCMLSPSSSGHLADSDTLSSAEENEPSQAETAVEGDPSGVSGATVGRKSRRSRSESETSTMAAKKNRQSSDKQNGRVAKVKGHRSQKHKERIRLLRQKREAAARKKYNLLQDSSTSDSDLTCDSSTSSSDDDEEVSGSSKTITAEIPDGPPVVAHYDMSDTNSDPEVVNVDNLLAAAVVQEHSNSVGGQDTGATWRTSGLLEELNAEAGHLDPGFLASDKTSAGNAPLNEEINIASSDSEVEIVGVQEHARCVHPRGGVIQSVSSWKHGSGTQYVSTRQTQSWTAVTPQQTWASPAEVVDLTLDEDSRRKYLL

Variants of: B1
Experiment: proximity ligation assay (PLA)
Conditions: with Arkadia-like 1 (ARKL1) [human (endogenous in U2OS)]; RNF111 KO U2OS cells complemented with vector (n = 19), HA-RNF111WT (n = 18), HA-RNF111 K237/238R (n = 28); antibodies to HA and ARKL1; parent: 7.5; read off a plot

Q: With chain 1 K237R K238R as the variant, how does the response (PLA foci per cell) read?
A: 3.2

Source: publication PMC10542384
